# Source: the DeepSol protein solubility set
# Experiment: soluble on expression in E. coli; label from the status in PepcDB or PDB records
row,Sequence,soluble on expression in E. coli
1,MSTPTAADRAKALERKNEGNVFVKEKHFLKAIEKYTEAIDLDSTQSIYFSNRAFAHFKVDNFQSALNDCDEAIKLDPKNIKAYHRRALSCMALLEFKKARKDLNVLLKAKPNDPAATKALLTCDRFIREERFRKAIGGAENEAKISLCQTLNLSSFDANADLANYEGPKLEFEQLYDDKNAFKGAKIKNMSQEFISKMVNDLFLKGKYLPKKYVAAIISHADTLFRQEPSMVELENNSTPDVKISVCGDTHGQFYDVLNLFRKFGKVGPKHTYLFNGDFVDRGSWSCEVALLFYCLKILHPNNFFLNRGNHESDNMNKIYGFEDECKYKYSQRIFNMFAQSFESLPLATLINNDYLVMHGGLPSDPSATLSDFKNIDRFAQPPRDGAFMELLWADPQEANGMGPSQRGLGHAFGPDITDRFLRNNKLRKIFRSHELRMGGVQFEQKGKLMTVFSAPNYCDSQGNLGGVIHVVPGHGILQAGRNDDQNLIIETFEAVEHPDIKPMAYSNGGFGL,soluble
2,MSTSSRTPSPSSLSACGGPSSSTTTAHPSSSPKSKTSVTSSRSDTDSVIPEHKPSSASSFSIGRLLFRSSGSSNSTKRDSVDSGKDDETGRSPATSRPGSPNPGGDKSPQMSTSRRLAGFASRSIRKSQWRLFKHRTFFGSQRSSMKKNQLQLPRLTLRHPSIDSSAMPLQLDVDENASGEGSDDFLQIRRSTQRRWTDSDTTGRLRDSRDSSDFNDSHDTLDIAGTSAHGVADSSSHHHHNYSMTAPVSPNVPLSASSSHSEGWKYSSQKLLWKLKPKYAYSHASSTSSSTDSAWKSLDSMTWRSVDGAEVVLRGARLENLSEIERSALQLLAAQRLTKMLPGVNLGKPKALRQKRQKLVKSNRTPTVADVQRRASGTPMPEEKRVFGVSLAMCMLNEKRLDQESRCRSLDDSTVIMLNKSKAKPTKSEPEMMSHTMPEDRKWLYPSTQNLYPTSTSNPSSPSPIMGSAPPTGSILPSANLLSAEPTTCEPQQVTGRFLKKQRPASASFSCSLDANIDDVDPHALQVPKIVENCTQYLMTYGLTQVGLFRVAGNTKRCRQLRNALEKVGGGAVINDNMVENTTSHDVATLLKEYFRDLPQSLLPGEHYSAYIGAAKLNVDERIEAIRLLFALLVSPILDTLFVLLKFLHEVSCHSQDRHDEDGELLSGNKMDARNLATIFAPSILRVDHDKLHETLAENEHQVIIVETMISNVEEIFKIPKELQCKIYTKLRETEPDRLDRILNHLSKMDSHESHPGVLLSPFPATLEEDSSPRHHRHGDHSHIGRQSPLARELTTNGKVKVQSQRSGSWPFSLTKTQTSPSRPEGQHFFPADSQDGPGPSHSHHDPSTSGTTMSATTTPGPGRKTDFSMKAADDSGRDSEFCSDELTFGTISQPETARERSVTMSTACGSPSTSNSKKTPMMASLQGATTSKSVDARSPSRERVDIRSAARSSAAAARRRLRNVVRAFRFTSMTRSTPDIAQSS,not soluble
3,MSVASETNWKKLDEKIAISGQISVDDVAAIAAAGYKSIICNRPDGEGGEHQPGSTELEEAAKAAGLQFAYLPVEIGQVSDEKCSAFHQLMATLPGPVLAFCNSGNRARALYSRDVGTTTTPAETISAACDWEHEAAAVTEAESEAAGAAAVSAASSRDEAAGKSIPVTPACNWDNAFDIVVVGGGSAGLGVTASLLRRRSSLRIAIIEPNDKHYYQPAWTLVGGGAYAVDQTVRNTADVIPHGAEWIKAEVSGFSPNDNLVHLADGRTIGYQQLIVCPGIRLAWEKIEGIQETLGKNGVTSNYLFDLAPYTWSLTQQLKGGKALFTQPPMPIKCAGAPQKAMYLSCDYWQRQGVLDKIEVEFDSAGAVLFGVADFVPPLMEYVRKYHANLVFNSNLVKVNGPEKIATFEIKNEAGEVTRVDKPFDMLHVTPPQAAPDFLRDSPLADASGYCEVNPKTLQHTRFANIFSLGDACSSPNTKTAAAVRKQIVIVAENLLAAKDGREFHAVYDGYGACPLTVENGKVVLAEFGFGGKLLPTFPLNPAVARKLYWWFKVKLFPWLYWEGMLKGREWLTRSTETKLEHHHHHH,soluble
4,MSVEFQFQALVEDTPNEKWKAIFQQLWPGYRAWFLRSGVTGRPTYLECRQALRTYMPELVPLWEQLIELTGGGDVESRFLSLWCPPPYIAGCSQGVWFDPKGQEEPILLRNYDFAPVLLEGNLLNTRWLDQRVIAMSDCLWGALDGVNEAGLSASLSFGGRTVTGTGFGIPLVLRYILELAHTTQDAVNILKRIPVHMTYSVTLLDRKGEWNTVFVSPDRQPEVVKRHAVTNYQNAIEWPQHATATHSAERLTFLEQVLHHATNSHEVLQGLLTKPLYQDAWLRGYGTLYSAIYRPLSQKVEICWPHDYSQQSFEHFTEEQKLILLSVELEHHHHHH,not soluble
5,MSVEIESIEHELEESIASLRQAGVRITPQRQAILRYLISSHTHPTADEIYQALSPDFPNISVATIYNNLRVFKDIGIVKELTYGDSSSRFDFNTHNHYHIICEQCGKIVDFQYPQLNEIERLAQHMTDFDVTHHRMEIYGVCKECQDK,not soluble
